Measurements: patent publication US20090098074A1

Tests used:
[1] = biological target: human hair (hair keratin) (human); experiment: quantitative hair-binding test; loss of A405 after 10% SDS relative to untreated hair
[2] = biological target: human skin (skin keratin) (human); experiment: quantitative skin-binding test; loss of A405 after 10% SDS relative to untreated skin
[3] = biological target: human skin (skin keratin) (human); experiment: quantitative skin-binding test, after washing with 10% strength SDS; value standardized to the surface
[4] = biological target: human hair (hair keratin) (human); experiment: quantitative hair-binding test, after washing with 10% strength SDS; value standardized to the surface
[5] = biological target: human hair (hair keratin) (human); experiment: quantitative hair-binding test on 5 mg human hair, anti-polyHistidine peroxidase/TMB; value standardized to the surface
[6] = biological target: human skin (skin keratin) (human); experiment: quantitative skin-binding test on human keratinocytes in microtiter plates, anti-His antibody/TMB; value standardized to the surface
[7] = biological target: human hair (hair keratin) (human); experiment: quantitative hair-binding test; His-tagged protein on 5 mg human hair, anti-polyHistidine peroxidase conjugate, TMB
[8] = biological target: human hair (hair keratin) (human); experiment: quantitative hair-binding test; DENATURED KBD-B on 5 mg human hair, anti-polyHistidine peroxidase conjugate, TMB
[9] = biological target: human hair (hair keratin) (human); experiment: quantitative hair-binding test; renatured KBD-B on 5 mg human hair, anti-polyHistidine peroxidase conjugate, TMB

| Relative absorption loss after 10% strength SDS treatment in % [1] [%] | Relative absorption loss after 10% strength SDS treatment in % [2] [%] | Absorption at 405 nm [3] | Absorption at 405 nm [4] | Absorption at 405 nm [5] | Absorption at 405 nm [6] | Absorption at 405 nm [7] | Absorption at 405 nm [8] | Absorption at 405 nm [9] | Binder |
| --- | --- | --- | --- | --- | --- | --- | --- | --- | --- |
| 30 | 15 | 3.15 | 0.62 | 0.88 | 3.69 | – | – | – | KBD-D (SEQ ID No.: 168), keratin-binding domain D, H. sapiens plakophilin 1a with N-terminal histidine anchor (protein) MRGSHHHHHHGSACELGTMNHSPLKTALAYECFQDQDNSTLALPSDQKMKTGTSGRQRVQEQVMMTVKRQKSKSSQSSTLSHSNRGSMYDGLADNYNYGTTSRSSYYSKFQAGNGSWGYPIYNGTLKREPDNRRFSSYSQMENWSRHYPRGSCNTTGAGSDICFMQKIKASRSEPDLYCDPRGTLRKGTLGSKGQKTTQNRYSFYSTCSGQKAIKKCPVRPPSCASKQDPVYIPPISCNKDLSFGHSRASSKICSEDIECSGLTIPKAVQYLSSQDEKYQAIGAYYIQHTCFQDESAKQQVYQLGGICKLVDLLRSPNQNVQQAAAGALRNLVFRSTTNKLETRRQNGIREAVSLLRRTGNAEIQKQLTGLLWNLSSTDELKEELIADALPVLADRVIIPFSGWCDGNSNMSREVVDPEVFFNATGCLRNLSSADAGRQTMRNYSGLIDSLMAYVQNCVAASRCDDKSVENCMCVLHNLSYRLDAEVPTRYRQLEYNARNAYTEKSSTGCFSNKSDKMMNNNYDCPLPEEETNPKGSGWLYHSDAIRTYLNLMGKSKKDATLEACAGALQNLTASKGLMSSGMSQLIGLKEKGLPQIARLLQSGNSDVVRSGASLLSNMSRHPLLHRVMGNQVFPEVTRLLTSHTGNTSNSEDILSSACYTVRNLMASQPQLAKQYFSSSMLNNIINLCRSSASPKAAEAARLLLSDMWSSKELQGVLRQQGFDRNMLGTLAGANSLRNFTSRF |
| – | – | – | – | – | – | 0.088 | – | – | comparison Protein YaaD from B. subtilis (with His tag) (protein, UniProt P37527 1-294, looked up, not shown: small tags and cut ends) MAQTGTERVKRGMAEMQKGGVIMDVINAEQAKIAEEAGAVAVMALERVPADIRAAGGVARMADPTIVEEVMNAVSIPVMAKARIGHIVEARVLEAMGVDYIDESEVLTPADEEFHLNKNEYTVPFVCGCRDLGEATRRIAEGASMLRTKGEPGTGNIVEAVRHMRKVNAQVRKVVAMSEDELMTEAKNLGAPYELLLQIKKDGKLPVVNFAAGGVATPADAALMMQLGADGVFVGSGIFKSDNPAKFAKAIVEATTHFTDYKLIAELSKELGTAMKGIEISNLLPEQRMQERGW |
| 86 | 80 | 0.185 | – | – | 0.93 | – | 0.254 | 1.59 | KBD-B (SEQ ID No.: 166), keratin-binding domain B of human desmoplakin expressed from pQE30-KBD-B in E. coli (protein) MRGSHHHHHHGSACELEPHTGLLLLSVQKRSMSFQGIRQPVTVTELVDSGILRPSTVNELESGQISYDEVGERIKDFLQGSSCIAGIYNETTKQKLGIYEAMKIGLVRPGTALELLEAQAATGFIVDPVSNLRLPVEEAYKRGLVGIEFKEKLLSAERAVTGYNDPETGNIISLFQAMNKELIEKGHGIRLLEAQIATGGIIDPKESHRLPVDIAYKRGYFNEELSEILSDPSDDTKGFFDPNTEENLTYLQLKERCIKDEETGLCLLPLKEKKKQVQTSQKNTLRKRRVVIVDPETNKEMSVQEGVDLQPSLIS |
